Test results taken from the nanobody polyreactivity screen of Harvey et al. (2022).

assay: yeast display, Sf9 membrane polyspecificity reagent, FACS + sequencing; frameworks hold sequencing errors
How it was run: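 Synthetic nanobody libraries on Saccharomyces cerevisiae BJ5465 were galactose-induced for 36–48 hours, stained 1 hour at 4 °C with 10% biotinylated, detergent-solubilized Sf9 membrane reagent and enriched on streptavidin microbeads. FACS then separated cells into low and high (top ~1%) gates by anti-HA (expression) and streptavidin (reagent binding) fluorescence. Genes were colony-PCR amplified, MiSeq 2 × 250 sequenced and CDR-length filtered. A clone's polyreactivity label is that of its gate of origin.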

Row | Sequence | polyreactivity (PSR sort gate)
1 | QDQLVESRGGLVQAGGSLGLSCAASGSIFSYYAMGWYRQAPGKERELVAAITSGGATTYYADSVKGRFTISRDYAKNTVYLQMNSLKPEDTAVYYCAAGYYVYYRWWELDYWGQGTQVTVSS | low polyreactivity
2 | QDQLVESRGGLVQAGGSLRISCAASGSPFYRNAKGWNTQAPGKERELVATISTGGVSTYYADSVKGRFTISRDNAKNTVYLQMNSLKPEDTAVYYCAQRTVYLSNLDYWGQGTQVTVTS | low polyreactivity
3 | QDQLVESRGGLVQAGGSLRLSCAASGINIGTNAMGWYRQAPGKERELVAAISGGGSTDYADSVKGRFTISRDNAKNPVYLQMNSLKPEDPAFYYCAANTGPVPLKGDYWGQGTQVTVSS | low polyreactivity
4 | QDQLVESRGGLVQAGGSLRLSCAASGLIFWRYTMGWYSQAPGKERELVAAINRSGGSTYYADSVKGRFTISRDNAKNTVYFQMNSLKPDDPAVYYCAASGYRYPIDGDYWGLGTQVTVSS | high polyreactivity
5 | QDQLVESRGGLVQAGGSLRLSCAASGRIFGYNAMGWYTQAPGKERELVAGITSVGRTYYADSVKGRFTISRDNAKNTVYLQMNSLKPEDTAVYYCNAASYSLAVTAEYEDMDYWGQGTQVTVTS | low polyreactivity
6 | QDQLVESRGGLVQAGGSLRVSCAASGLSFGYYAMGWYRQATGKERELVAAISSSGVNTYYADSVKGRFTISRDNPKNTVYLQMNSLIPEDTAVYYCNTVPKPWYSWKYAYDYWGQGTQVTVSS | high polyreactivity
7 | QDQLVESRVGLVQAGGSLRLSCAASGMIIGIYDMGWYRQAPGKERELVAAIRRSGGSTYYADSVKGRFTISRDNAKNTVYLQMYSLKPEDTAAYYCATDAWYYSQTNHDYWGQGTHVTVSS | low polyreactivity
8 | QDQLVESVGCLVQAGGSLRLSCAASGLTIQRNDMGWYRQAPGKEREFVATITSNAGSTYYADSVKGRFTISRDNAKNTVYLQKNSLKPEDTAVYYCARERWWGGSDYWGQGTQVTVSS | high polyreactivity
9 | QDQLVESVGDLVQAGGSLRLSCAASGGIFQKYVMGWYRQAPGKERELVARITSVGSTYYADSVKGRFTISRDNAKNTVYLQMNSLKPEDTAVYYCNAELYRRSQGYRFTAFDYWGQGTQVTVSS | low polyreactivity
10 | QDQLVESVGGLVQAGGSLRLIFAASGSILTFYAMGWYRQAPGKERELVAAITWRGCSTYYADSVKGRFTISRDNEKNTVYLQMNSLKPEDTAVYYCAAERYGPRYDYWGQGTQVTLSS | high polyreactivity
11 | QDQLVESVGGLVQAGGSLRLSCAASGFTFYNYAMGWYRQAPGKERELVAAISWNGGSTYYADSVKGRFTISRDNAKNTVYLQMNSLKPEDTAVYYCNADISQRTRGYYYVWWSRMDYWGQGTQVTVSS | low polyreactivity
12 | QDQLVESVGGLVQAGGSLRLSCAASGLIFSRNVMGWYRQGPGTERELVAAITRSGGSTYYADSVKGRFTISRDNAKNTVYLQMNSLKPVDTAVYYCAASRFNYVYLLKGDYWGQGTQVTVSS | high polyreactivity
13 | QDQLVESVGGLVQAGGSLRLSCAASGRIVKYAMGWYRQAPGKERELVAAISGSGGTTYYADSVKWRFTISRDNAKNTVYLQMNSQKPEDTAVYYCNKTPRNLRILQHSSQSMDYWGQGTQVTVSS | high polyreactivity
14 | QDQLVESVGGLVQAGGSLRLSSAASGFIFYLYAIGWDRQAPGKERDLVAAITRRGGSTYYEDSVKGRFTISRDNAKNTVYLQMNSLKPEDTAVYDCAADHYGFFSAGDFDYWGQGTQVNVSS | high polyreactivity
15 | QDQLVESVVCLVQAGLSLRLSGASSVRIFRYYAMGWYRQAHGKERELVAAINSDGRTYYADSVKGRFTISRDNANNTVYLQMNSLKPEDTAVYYCAADHHSYRYGGYYYWGQGTQVTVAS | low polyreactivity
16 | QDQLVESWGGLVQAGCSLRLTCAASGSTFWWYAMGWNRQAPGKQREFDAPINWSGSRTYYADSVKGRFTISRDNAKNTVYLQINSLNPEDTAVYYCAAVGRWGVTGSHHDAYDYWGQGTQVTVSS | high polyreactivity
17 | QDQLVESWGGLVQAGGSLRLSCAASGFTFNKYAMGWYRQAPGKERELVAAISSSGGRTSYADSVKGRFTISRDNAKNTVYLQMNSLKPEDTAVYYCNKVSTADMGYWGHGTQVTVSS | high polyreactivity
18 | QDQLVESWGGLVQAGGSLRLSCASSGITVYGYTMGWYRQAPGKERELVAGISRGGSTYYADSVKGRFTISRDNAKNTVYLQINSLKPEDTAVYYCAVESFYRHASLYDYWGQGTQVTVSS | high polyreactivity
19 | QDQLVETGGGLVQAGGSLRLSCAASRNTFAQKAMGRSRQAPGKERELVAAITDGTSTNYADSVKGRFTISRDNAKNTVYLQMNSLKPEDKAVYYCAAESLYTLFYWGYDYWGQGTQVTVSS | low polyreactivity
20 | QDQLVETGLGLVQAGGSLRLSLAASGRTFSYAKAWYRQEPGKERELVAAITKRGGSTNFADSVKGRFTISRDNAKNTVYLQMNSLKPEDTAVYYCATDPYHGSYLTYGRMDYWGQGTQVTVSS | high polyreactivity
21 | QDQLVQSGGGLVQAGGSLRLSCDASGGMFDSNAMGRYRQPPGKERELVAAISDSGGSTYYADSVKGRFTISRDNAKNTVYLQMNSLKPEDTAVYYCAGDSDYHFVNYRFGMDYWGQGTQVTVSS | low polyreactivity
22 | QDQLVVSGGGLFQAVGSLRLICAASGIFRSYAMGWYRQAPGKERELVAAITGGASGTYYADSVKGRFTISRDNAKNTVYLQMNSLKPEDTAVYFCAAVNRVYFPFRLQVIYGSWGQGTQVTVSS | high polyreactivity

Row | Sequence | polyreactivity (PSR sort gate)
23 | QDQRVESGGGLVQAGGSLRLSCAASGITLEFYAMGWYRQAPGNERELVARIRSGGSTNYAVSVKGRFTISRDNAKNTVYLQMNSLKPDDTAVYYCAAYLRTDRYGYWGQGTQVTVSS | high polyreactivity
24 | QDQRVESGGGLVQAGGSLRLSCAASGRIFGTYTMGWYRQAPGKERELVAAITTGGITNYADSVKGRFTISRDNAKNTVYLQMYSLKPEDTAVYYCNARWDYGAYEYWGQGTQVTVSS | low polyreactivity
25 | QDQVVESGGGVVQAGGSLRLICAAYGSTLRYYDMGWYRQAPGKERELVAAISRGCSTYYADSVKGRFTISRDNAKNTVYLLMNSLKPEETAVFYCNKEYPSSYEYDYWGQGTQVTVSS | low polyreactivity
26 | QEHLVESGGGLDQAGGRLRLSCAASGSIFAAYAMGWYRHAPGKERELVAAIKWTDGSTYYADSVKGRFTISRDIAMNTVYLQMNSLKPEDTAVYYCIRRQYGRKKQYDYWVQGTQVTVSS | high polyreactivity
27 | QEQHVESGGGLVQAGGSLRLSSAASVNIIGFYAKGWYREAPGKESEFVAAISFGTDRTYYADSVKGRFTISRENAKNTVYLQMNSLKPEDTALYYCNRRCNNGVRYGECDYWGQGTQVTVSS | high polyreactivity
28 | QEQLQECGGGLVQAGGSLRLSCAASGNVFDADIMGWYRQAPGKERELVASVTDGGSTNYADSVKGRFTFSRDIAKNTVYLQMNSLKPEDTAVYYCAAIVYPDILTYFDYDYDYFYWGQGTQVTVGS | low polyreactivity
29 | QEQLQERGGGLVQAGGSLRLSCAASGSIFKVVDMGLYRQAPAKEREFVATIGEGGNTYYADSVKGRFTISRDNAKNTVYLQMNSLKPEDTAVYFYAVVLGTYYRYTYWGQGTQVTVSS | low polyreactivity
30 | QEQLQESCGGLVLAGGSLRLSCASSGSISAQAYMGWDRQAPGKEREHVAGINYGDNTNYADSVKGRFTISRDNEHRVSADEQPETGRYRGVLLRGFLELFYYYIYWGQGTQVTVSS | high polyreactivity
31 | QEQLQESGGGLVKAGGSLRLSCAASGNISPRDAMGWYRQAPGEERDLVASNAYSAITYYADGVKGRYTISRDNAKNTVYVQMNSLKPEDTDVYYCEFYQFTYPVFPAYWGQGTQVTVSS | low polyreactivity
32 | QEQLQESGGGLVLAGGSLRLSCSASGNISVYGSMGWYRQAPGKELEFVATIDPGTNTNYADSVKDRFTISRDNAKNTVYLQMNSLKPEDRAVYYCAVEAGSDWPFRYWGQGTQVTVSS | low polyreactivity
33 | QEQLQVSGGHLVQAGGSLRLSCAASGTIYGLTSMGWYRQAPGKEREFVAAITDGGNTNYADSVKGRFTISRDNAKKTVYLLMFCLKPEDTAVYYCAVLFSDDAYYAYWCQGTQVTVSS | low polyreactivity
34 | QEQLVESGAGLVQAGGSLRLSCAASGSIFTLYGMGRYRQAPGKERELVAAITWSGGRTYYADSVKGRFTISRDNAKNTVYLQMNSLKPEDTAVYYCAAYRYVSWYYPDDYWGQGTQVTVSS | high polyreactivity
35 | QEQLVESGGGLDQAGGSLRLSCAASGSTFSGYALAWYRQAPGKERELVAAISWRGVRTYYADSVKGRFSISRDNAKNRVYLQMNSLKPEDNAVYYCAAVGYITKEFYWGQGTKVTVSS | high polyreactivity
36 | QEQLVESGGGLDQAGGSLRLSCAASGYTFVNYAMGWYRQAPGKERELVAAITSRGSSTYYADSVKGRFTISRDNAKNTVYLQMNSLKPEDTAVYYCAAYSSSLQGGYWGQGTQVTVSS | high polyreactivity
37 | QEQLVESGGGLVQAGGSLRLSCAASGFTFYFNAMGWYRQAPGKERELVAGITSDGITYYADSVKGRFTISRDNANNTVYLQMNSLKPEDTAVYYCAARKLEWDIKNDYCGQGTQVTVSS | low polyreactivity
38 | QEQLVESGGGLVQAGGSLRLTCAASGRTFFRYARGWYRQAPGKEREVVAAISSGGSTYYADTVKGRFTISRDNAKNTVYLQMNSLKPEDTAVYYCATRNYRLWPYVSVAYDYCGQGTQVTVSS | high polyreactivity
39 | QEQQQESGGGLVQAGGSQRLSCAASGYIFYFQYMGWYRQAPGKEREFVAAISDGANTNYADSVKGRFTISRDNAINTEYLQMNSLKPEDTAVYYCAVYADENYYYIYWGQGTQVTVSS | low polyreactivity
40 | QFHLVESGGGLVHAGGSLRLSCAASGNIFPPNTMGWYRQAPGKATELVAVITWSDGGTYADSVKGRFTISRDNAKKTVYLQMNSLKPEDTAVYYCNADYYFAAPKGEYTAWYDYWGKGTQVTVSS | low polyreactivity
41 | QFHLVESGGGLVQAGGSLRLSCAASGRIFSEYAMGWYRQAHGKEMELVASISTSGGSTYYADSVKGRFTISRDNAKNTVYLQKYSLKPEDTEVYYCNVAYYRYPSYTYGYDHWGQGTQVTVSS | high polyreactivity
42 | QFHLVESGGGLVQAGGSLRLSCAAYGIIFYSYTMGWYRQAPGKERELVAAISRSGGSTYYADSVKGRFTISRDNAKNTVYLQMNSLKPEDTAVYYCAQVGNTAGYDYWGQGSQVTVSS | high polyreactivity
43 | QFQIVDSLEGLVQEAGTLRLSSAASGSIFYRYAKGGYRQAPRKERELVATITSSGGRTYYADSVKGRFTISRDNAKNTVYLQMNSLKPEDTAVNYCKPRDWGRTRGGGYPWLYRYDYWGQGTQVTVSS | low polyreactivity
